According to US20140249468:

Measured: fluorescence activation (recovery of Cy5.5 fluorescence on cleavage)

activated recombinant human MMP-13
>25-fold vs. without MMP: MMP-P0 | MMP-P24 | MMP-P4 | MMP-P67 | MMP-P12
